The target in test [1] is T1, full-length human OX40 expressed on HuT78 cells (HuT78/OX40) (human, UniProt P43489 29-277).
T1 sequence: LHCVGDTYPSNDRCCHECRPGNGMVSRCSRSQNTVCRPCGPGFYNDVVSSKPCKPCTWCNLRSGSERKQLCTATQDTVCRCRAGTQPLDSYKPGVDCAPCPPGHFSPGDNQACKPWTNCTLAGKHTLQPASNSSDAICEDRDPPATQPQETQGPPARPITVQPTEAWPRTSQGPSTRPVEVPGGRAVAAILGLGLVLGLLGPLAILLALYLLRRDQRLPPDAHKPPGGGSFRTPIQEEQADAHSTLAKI
Put plainly: FACS; against 445-2. (In general: Flow cytometry measures light scatter and fluorescence of single cells or particles in a stream.)

Test [2] has as its target T2, recombinant OX40 protein with a His tag (Cat: 10481-H08H, Sino Biological) (UniProt P43489 29-216).
T2 construct: Bought protein; also called OX40-His (bought); not shown: His tag
T2 sequence (looked up): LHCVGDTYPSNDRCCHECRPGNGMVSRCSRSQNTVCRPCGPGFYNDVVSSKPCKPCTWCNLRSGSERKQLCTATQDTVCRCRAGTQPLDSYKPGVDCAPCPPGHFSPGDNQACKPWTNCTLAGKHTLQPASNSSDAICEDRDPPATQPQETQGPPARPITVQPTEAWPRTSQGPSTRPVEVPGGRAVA
Put plainly: Biacore (SPR); antigen not named on the sheet, OX40-His as in Example 4.

For test [3], the target named is T1, full-length human OX40 expressed on …. As to the kind of experiment: FACS; cells not named on the sheet, HuT78/OX40 cells as in Example 5.
Test [4] has as its target T3, human OX40/IgG1 fusion H153A (human, UniProt P43489 29-216).
T3 construct: not shown: Fc domain of human IgG1 wild type heavy chain
T3 chain: T2 sequence (looked up) with H125A
As to the kind of experiment: SPR, BIAcore 8K, OX40/IgG1 mutant immobilized, 445-3 Fab flowed. Here is the method: Briefly, OX40 mutants and wild type OX40 were immobilized on a CM5 biosensor chip (Cat: BR100530, GE Life Sciences) using EDC and NHS. […] The changes in surface plasmon resonance signals were analyzed to calculate the association rates (ka) and dissociation rates (kd) by using the one-to-one Langmuir binding model (BIA Evaluation Software, GE Life Sciences). The equilibrium dissociation constant (KD) was calculated as the ratio kd/ka. The KD shift fold of mutant was calculated as the ratio Mutant KD/WT KD.

Test [5] concerns the target T2, recombinant OX40 protein with a His tag …. Put plainly: Biacore; against 445-2. Background: In SPR one partner is held on a chip, and binding of the other changes the refractive index at the surface.
Test [6] deals with T1, full-length human OX40 expressed on …. Put plainly: flow cytometry on live HuT78/OX40 cells; Test 1. As to the method:
(§1) To evaluate the binding activity of anti-OX40 antibodies to bind OX40 expressed on the surface of live cells, HuT78 cells were transfected with human OX40 as described in Example 1 to create an OX40 expressing line. Live HuT78/OX40 cells were seeded in 96-well plate and were incubated with a serial dilution of various anti-OX40 antibodies. Goat anti-Human IgG-FITC (Cat: A0556, Beyotime) was used as a secondary antibody to detect antibody binding to the cell surface. EC₅₀ values for dose-dependent binding to human OX40 were determined by fitting the dose-response data to the four-parameter logistic model with GraphPad Prism.

The target in test [7] is T2, recombinant OX40 protein with a His tag …. As to the kind of experiment: SPR, BIAcore T-200; antibody captured by anti-human IgG, OX40-His flowed; Test 1. The source says: (§2) The anti-OX40 antibodies were characterized for their binding kinetics and affinity by SPR assays using BIAcore™ T-200 (GE Life Sciences). Briefly, anti-human IgG antibody was immobilized on an activated CM5 biosensorchip (Cat: BR100530, GE Life Sciences). An antibody with human IgG Fc region was flowed over the chip surface and captured by anti-human IgG antibody. Then a serial dilution of recombinant OX40 protein with a His tag (Cat: 10481-H08H, Sino Biological) was flowed over the chip surface and changes in surface plasmon resonance signals were analyzed to calculate the association rates (ka) and dissociation rates (kd) by using the one-to-one Langmuir binding model (BIA Evaluation Software, GE Life Sciences). The equilibrium dissociation constant (KD) was calculated as the ratio kd/ka.

Test [8] has as its target T4, cynomolgus OX40 expressed on HuT78 cells (HuT78/cynoOX40) (cynomolgus monkey).
T4 construct: whole, on cells; also called cynomolgus monkey OX40
Put plainly: flow cytometry on HuT78/cynoOX40 cells. As to the method:
(§3) Goat anti-Human IgG-FITC (Cat: A0556, Beyotime) was used as a secondary antibody for detection. EC₅₀ values for dose-dependent binding to human and cynomolgus monkey native OX40s were determined by fitting the dose-response data to the four-parameter logistic model with GraphPad Prism.

In test [9] the target is T2, recombinant OX40 protein with a His tag …. Put plainly: SPR, BIAcore T-200; antibody captured by anti-human IgG, OX40-His flowed; Test 2.
From the text: as §2

The target of test [10] is T1, full-length human OX40 expressed on …. Put plainly: flow cytometry on live HuT78/OX40 cells; Test 2. As to the method:
as §1

For test [11] the target is unchanged. Put plainly: flow cytometry on live HuT78/OX40 cells; Mean. Here is the method: as §1
The target is the same in test [12]. Put plainly: flow cytometry on HuT78/OX40 cells. Here is the method: as §3
Test [13] has as its target T2, recombinant OX40 protein with a His tag …. As to the kind of experiment: SPR, BIAcore T-200; antibody captured by anti-human IgG, OX40-His flowed; Mean.
From the text: as §2

Residue numbers refer to the chain shown, from its start. Names and notes keep the numbering of the source.

B1: 445-2 with K28T in the heavy chain and S24R in the light chain (antibody, human IgG1, V domains shown)
VH: QVQLVQSGAEVKKPGSSVKVSCKASGYTFTSYIIHWVRQAPGQGLEWMGYINPYNEGTRYAQKFQGRVTLTADKSTSTAYMELSSLRSEDTAVYYCARGYYGSSYAMDYWGQGTTVTVSS
VL: DIQMTQSPSSLSASVGDRVTITCRASQGISNYLNWYQQKPGKAIKLLIYDASTLYSGVPSRFSGSGSGTDFTLTISSLQPEDFATYYCQQYSKLPYTFGGGTKVEIK
In the case of B1, the “fold increase to the EC50 over 445-2” value in test [1] was determined as 1.7 fold. Further, in [2], the Kd (usually the constant that tells how readily two partners part at equilibrium) is 12.9 nM; the koff (as a rule, the first-order rate constant of dissociation) worked out at 0.00574 s⁻¹; the kon (as a rule, the rate constant with which the complex forms) was 444000 M⁻¹ s⁻¹. In addition, in test [3], the response was half-maximal at 0.66 µg/mL (EC50) and the “Top(MFI)” value worked out at 750 MFI.

B2: 445-3 Fab (Fab, V domains shown)
VH: B1 VH with T28K, A61N
VL: B1 VL with G41D, K42G
As for B2, the binding result in test [4] is reported as “no binding”.

B3: 445-2 with Y27G in the heavy chain and S24R in the light chain (antibody, human IgG1, V domains shown)
VH: B1 VH with Y27G, T28K
VL: B1 VL
Regarding B3, in test [2], the Kd was 21.5 nM, the koff turned out to be 0.00135 s⁻¹ and the kon came to 62500 M⁻¹ s⁻¹. In addition, the “fold increase to the KD over 445-2” value in test [5] amounted to 1.7 fold. For the same molecule, in test [3], it took 0.755 µg/mL to reach a half-maximal effect (EC50) and the “Top(MFI)” value was determined as 630 MFI.

B4: 445-3 (antibody, V domains shown)
VH: B1 VH with T28K, A61N
VL: B1 VL with G41D, K42G
With B4, the EC50 (usually the concentration giving half of the maximal effect) in [6] worked out at 0.337 µg/mL; in test [8], 0.171 µg/mL; in test [10], 0.319 µg/mL; in test [11] it was 0.328 µg/mL; in test [3], 0.462 µg/mL; in test [12], 0.174 µg/mL. Moreover, the Kd was found to be 8.51 nM in test [2], 9.16 nM in test [7], 9.77 nM in [9] and 9.47 nM in test [13]. In addition, the Ka in [7] came out at 1.09e+08 M⁻¹; in test [9], 1.03e+08 M⁻¹; in test [13], 1.06e+08 M⁻¹. Further, the “Top(MFI)” value in test [11] came out at 910 MFI; in test [3] it was 990 MFI.

Values taken from patent publication US20230011916A1 (BEIGENE, published 2023).
